Assay results taken from patent publication US20220404334A1, “BIOCHIP HAVING MICROCHANNEL PROVIDED WITH CAPTURING AGENT FOR PERFORMING CYTOLOGICAL ANALYSIS” (CASE WESTERN RESERVE UNIVERSITY, priority 2019, published 2022).

How the values were obtained:
Recombinant human ICAM-1 = Recombinant human ICAM-1 (Homo sapiens, UniProt P05362); test: Microfluidic flow adhesion of HbSS RBCs to immobilized ICAM-1, inhibition experiments; format: cell-based
Experimental: ICAM-1 functionalized microchannels of the microfluidic device were connected to blood-containing syringes through 40-cm inlet tubing. A total of […] of whole blood sample was perfused into the microchannels at an approximate shear stress of 1 dyne/cm^2, corresponding to the typical shear stress observed in postcapillary venules, via a constant displacement syringe pump (New Era NE-300; New Era Pump Systems, Farmingdale, N.Y.). To remove the nonadherent cells, another syringe filled with wash buffer (1% bovine serum albumin and 0.09% sodium azide in 13 phosphate buffered saline [PBS]) was connected to the microchannels, and the buffer solution was injected at […], corresponding to a wall shear stress of 1 dyne/cm^2, until all nonadherent cells had been cleared. Phase-contrast images of the microchannel surface were obtained using an inverted microscope at 203. Quantification of ICAM-1-adherent RBCs was performed manually using Adobe Photo-shop CS5 (Adobe, San Jose, Calif.) within a rectangular field of view (fov) with a surface area of 32 mm^2.
For the inhibition studies, whole HbSS blood samples were mixed with a monoclonal mouse antibody against human α4β1 or LFA-1 at a final antibody concentration of […] and incubated at 37° C. for 1 hour prior to the adhesion experiments. As a control, samples were treated with the same concentration of isotype-control mouse immunoglobulin G1 for the same duration. Anti-human LFA-1 antibody and the isotype-control mouse immunoglobulin G were from BioLegend (San Diego, Calif.). Anti-human α4β1 antibody was purchased from Abcam (Cambridge, Mass.). To block the β2-associated adhesion pathways, a recombinant human β2 protein solution (Novus Biologicals, Centennial, Colo.) was perfused into ICAM-1-functionalized microchannels and incubated for 1 hour at 37° C. Before starting the adhesion experiments, the microchannels were rinsed 3 times with PBS. Similarly, to test the inhibitory effect of fibrinogen (Enzo Life Sciences, Farmingdale, N.Y.) or low molecular weight heparin (LMWH; AMSBIO, Cambridge, Mass.), ICAM-1-functionalized microchannels were injected with fibrinogen (range, 1-20 mg/mL) or LMWH (range, 0.1-5 mg/mL). After an hour at 37° C., the microchannels were rinsed with PBS 3 times, and adhesion was assessed as above.
Minitab 19 (Minitab, State College, Pa.) was used to analyze the results. A normality test was performed to determine whether the variables were normally distributed. Because of the largely non-normally distributed variables, Mann-Whitney U tests were used to compare 2 groups, and Kruskal-Wallis tests with Dunn's correction were used to compare multiple groups, unless stated otherwise. K-means clustering analysis was performed to identify distinct subject subpopulations based on hemolysis biomarkers. Through-out this article, the error bars represent±standard error of the mean (SEM). P<0.05 was considered statistically significant.

[1] = system: heme-activated endothelial cells (HUVECs and HPMECs); test: Endothelium-on-a-chip: sickle RBC adhesion to heme-activated endothelial cells under hypoxia; format: cell-based, human; details: 5 μM, N=13 subjects
Experimental: The assembled microchannels are rinsed serially with PBS, 100% ethanol, and GMBS following a 20-minute incubation. Thereafter, another washing step is performed using 100% ethanol and PBS before loading the microchannels with a fibronectin solution at a concentration of 0.2 mg/mL. Fibronectin-loaded microchannels are incubated at 37° C. for 1 hour for complete protein immobilization on the GMBS-functionalized surface. To prepare the endothelialized microchannels, human endothelial cells are seeded into fibronectin-coated microchannels at a density of 4×10^6 cells/mL and incubated for 2 hours at 37° C. and 5% CO2 to allow cell attachment and spreading, while replacing the culture medium in the microchannels every hour.
The activating agents (e.g., heme or TNF-α) are then injected into the microchannels in a serum-free medium and incubated for a pre-determined period for activation to take place. Before using the activated endothelial cells, the microfluidic channels are rinsed for at least 2 times with serum-free medium.
When using blood samples collected in Ethylenediaminetetraacetic acid (EDTA) containing vacutainers, the blood samples are first centrifuged and washed three times with PBS to isolate blood cells from plasma. When in contact with adherent endothelial cells, EDTA will induce cell detachment by inhibiting Ca^2+ ions that are necessary for cell adhesion through integrins. […]

P-selectin [2] = target: T1, P-selectin (Homo sapiens, UniProt P16109); test: Microfluidic whole blood assay of leukocyte adhesion to immobilized P-selectin, microchannels pre-treated with drug (inhibition experiments); format: cell-based
T1 sequence (P16109 42-830): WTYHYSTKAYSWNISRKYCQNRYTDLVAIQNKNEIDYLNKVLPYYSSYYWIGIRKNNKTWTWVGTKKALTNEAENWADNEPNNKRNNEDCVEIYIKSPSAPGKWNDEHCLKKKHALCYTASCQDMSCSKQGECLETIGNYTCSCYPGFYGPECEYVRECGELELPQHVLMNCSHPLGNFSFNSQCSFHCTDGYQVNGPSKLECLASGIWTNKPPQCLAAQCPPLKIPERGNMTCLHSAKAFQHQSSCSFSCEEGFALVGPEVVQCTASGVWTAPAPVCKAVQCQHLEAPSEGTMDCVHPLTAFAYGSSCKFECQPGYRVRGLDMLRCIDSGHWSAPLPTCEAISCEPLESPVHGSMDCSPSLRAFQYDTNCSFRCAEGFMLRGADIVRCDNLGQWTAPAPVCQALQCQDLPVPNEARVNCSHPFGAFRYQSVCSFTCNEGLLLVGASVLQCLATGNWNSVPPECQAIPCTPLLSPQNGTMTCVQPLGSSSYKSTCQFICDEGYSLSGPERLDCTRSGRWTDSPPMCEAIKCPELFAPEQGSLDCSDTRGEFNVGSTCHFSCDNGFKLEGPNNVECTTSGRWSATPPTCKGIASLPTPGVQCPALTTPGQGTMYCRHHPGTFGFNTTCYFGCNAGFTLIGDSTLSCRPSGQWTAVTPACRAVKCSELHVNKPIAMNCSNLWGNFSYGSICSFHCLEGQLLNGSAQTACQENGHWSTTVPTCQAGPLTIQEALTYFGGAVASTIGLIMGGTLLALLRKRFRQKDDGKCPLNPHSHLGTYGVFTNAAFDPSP
Experimental: (§1) Microfluidic devices were fabricated using a lamination technique. Each microfluidic device contained 3 identical microchannels with a height of 50 μm (FIG. 6A), which were designed to recapitulate volume and flow of post-capillary venules. The microchannels were functionalized with recombinant human P-selectin (25 μg/mL) and blocked with 2% bovine serum albumin (BSA) to pre-vent non-specific adhesion. After tubing assembly, whole blood samples were mixed with Hanks' buffer modified with calcium and magnesium (1:1 v/v), and 15 μL of the diluted whole blood was injected into the microchannels using New Era NE-300 syringe pump system (Farming-dale, N.Y.) at an approximate shear rate of 1 dyne/cm^2. Non-adherent cells were rinsed out by flowing Hanks' buffer. Phase-contrast images of the microchannels with adherent leukocytes were recorded at 10× with an inverted microscope (Olympus IX83) and a camera (EXi Blue EXI-BLU-RF-M-14-C), and adherent leukocytes were manually quantified with Adobe Photoshop software (San Jose, Calif.) in a 32 mm^2 area.
Crizanlizumab (ADAKVEO®, SEG101) stock solution (10 mg/mL) was donated by Novartis (Basel, Switzerland). For the inhibition experiments, P-selectin immobilized-microchannels were pre-treated with Hanks buffer as vehicle control, or Crizanlizumab with graded concentrations of 1, 10, 100 μg/mL, or 1 mg/mL at 37° C. for 30 min. There-after, the adhesion assay was performed. Human IgG2 (Sigma Aldrich, St. Louis, Mo.), at 100 μg/mL, was included as the isotype control for Crizanlizumab. For the detachment experiments, modified microchannels with individual inlets for separately injecting blood and drug-containing buffer were designed to allow transition from washing buffer to Crizanlizumab during rinsing. Two synchronous pumps connected to these inlets were programmed such that Crizanlizumab at 10 μg/mL was injected into microchannels after Hanks buffer without a disruption in shear rate. The programmed flow rates of the two synchronous pumps over the course of the experiment are shown in FIG. 7A, which insured a constant shear rate in the microchannels. Cell behaviors were also continuously recorded. Phase contrast images of the adherent leukocytes were collected during Hanks's buffer rinse and Crizanlizumab flow for comparison.
Leukocyte adhesion data were reported as mean±standard error of the mean (SEM). Clinical variables of the study population were re-ported as mean±standard deviation (SD). Statistical analyses were per-formed with Minitab (Minitab Inc., State College, Pa.). A test for normality was initially performed on relevant variables. A paired t-test was per-formed to compare paired groups before and after Crizanlizumab treatment. Statistical significance was determined based on a p-value<0.05 (p<0.05).

P-selectin [3] = target: T1, P-selectin; design: host or cells: patients with SCD (endogenous protein in vivo); details: infused monthly, patients with SCD; cited from earlier work
P-selectin [4] = target: T1, P-selectin; test: Detachment experiments: drug flowed over leukocytes already adherent to immobilized P-selectin; format: cell-based
Experimental: as §1
Crizanlizumab (ADAKVEO®, SEG101) stock solution (10 mg/mL) was donated by Novartis (Basel, Switzerland). For the inhibition experiments, P-selectin immobilized-microchannels were pre-treated with Hanks buffer as vehicle control, or Crizanlizumab with graded concentrations of 1, 10, 100 μg/mL, or 1 mg/mL at 37° C. for 30 min. There-after, the adhesion assay was performed. Human IgG2 (Sigma Aldrich, St. Louis, Mo.), at 100 μg/mL, was included as the isotype control for Crizanlizumab. For the detachment experiments, modified microchannels with individual inlets for separately injecting blood and drug-containing buffer were designed to allow transition from washing buffer to Crizanlizumab during rinsing. […] Cell behaviors were also continuously recorded. […]
Leukocyte adhesion data were reported as mean±standard error of the mean (SEM). […] Statistical significance was determined based on a p-value<0.05 (p<0.05).

[5] = pre-treatment 1 μg/mL, HbSS on-transfusion samples, N=8
[6] = pre-treatment 10 μg/mL, HbSS on-transfusion samples, N=8
[7] = pre-treatment 1 mg/mL, HbSS on-transfusion samples, N=8

Chain of Recombinant human ICAM-1 (P05362 28-532): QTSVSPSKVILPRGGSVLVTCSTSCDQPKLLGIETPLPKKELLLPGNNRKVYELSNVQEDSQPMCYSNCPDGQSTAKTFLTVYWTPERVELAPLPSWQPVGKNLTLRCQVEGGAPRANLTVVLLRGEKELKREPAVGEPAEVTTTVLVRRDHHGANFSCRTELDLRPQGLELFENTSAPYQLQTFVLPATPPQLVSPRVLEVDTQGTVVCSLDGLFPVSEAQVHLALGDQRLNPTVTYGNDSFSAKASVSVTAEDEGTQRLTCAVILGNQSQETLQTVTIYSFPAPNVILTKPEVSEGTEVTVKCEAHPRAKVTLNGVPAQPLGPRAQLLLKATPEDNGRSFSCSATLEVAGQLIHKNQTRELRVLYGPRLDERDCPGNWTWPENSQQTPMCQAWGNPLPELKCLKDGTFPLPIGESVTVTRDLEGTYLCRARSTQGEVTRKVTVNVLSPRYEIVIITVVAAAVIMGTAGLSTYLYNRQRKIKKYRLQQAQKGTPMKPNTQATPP

recombinant human β2 protein: recombinant human β2 protein solution (Novus Biologicals) to block β2-associated adhesion pathways
Effect on HbSS RBC adhesion to immobilized ICAM-1 (Recombinant human ICAM-1; microchannels treated with protein 1 hour 37° C., 5 experiments): No significant reduction

Cc1ccc(NC(=O)c2ccc(CN3CCN(C)CC3)cc2)cc1Nc1nccc(-c2cccnc2)n1 [imatinib]
Sickle RBC adhesion to heme-activated endothelial cells (mean adhesion±SEM) [1]: 171±30

low molecular weight heparin [LMWH]
Effect on RBC adhesion to ICAM-1 (Recombinant human ICAM-1; preincubation of microfluidic channels (not blood)): had no effect | Inhibition of RBC adhesion to ICAM-1 (Recombinant human ICAM-1; pretreatment of blood samples at 0.1 mg/mL): 0.80% | Effect on RBC adhesion to ICAM-1 (Recombinant human ICAM-1; whole blood samples treated (1:1 v/v) at 0.1, 1, and 5 mg/mL): significantly blocked RBC adhesion to ICAM-1

fibrinogen
Effect on RBC adhesion to ICAM-1 (Recombinant human ICAM-1; microchannels incubated with 1 mg/mL): did not inhibit RBC adhesion | Adhesion blocked (Recombinant human ICAM-1; microchannels incubated with 5 mg/mL): about 50% | Effect on RBC adhesion to ICAM-1 (Recombinant human ICAM-1; microchannels treated with 1, 5, 10, 20 mg/mL, n=5): significantly decreased RBC adhesion in a concentration-dependent manner

B1: Crizanlizumab: humanized monoclonal antibody against P-selectin (antibody, chains of the INN, looked up, V domains shown)
VH: QVQLVQSGAEVKKPGASVKVSCKVSGYTFTSYDINWVRQAPGKGLEWMGWIYPGDGSIKYNEKFKGRVTMTVDKSTDTAYMELSSLRSEDTAVYYCARRGEYGNYEGAMDYWGQGTLVTVSS
VL: DIQMTQSPSSLSASVGDRVTITCKASQSVDYDGHSYMNWYQQKPGKAPKLLIYAASNLESGVPSRFSGSGSGTDFTLTISSLQPEDFATYYCQQSDENPLTFGGGTKVEIK
Leukocyte adhesion (adherent leukocytes, mean±SEM) (P-selectin [2]; isotype control comparison, 100 μg/mL, N=3): 596±221 | Leukocyte adhesion (adherent leukocytes, mean±SEM) (P-selectin [2]; [5]): 1535±258 | Leukocyte adhesion, range (P-selectin [2]; [5]): 257-2732 | Leukocyte adhesion (adherent leukocytes, mean±SEM) (P-selectin [2]; [6]): 1057±325 | Leukocyte adhesion, range (P-selectin [2]; [6]): 195-2948 | Leukocyte adhesion (adherent leukocytes, mean±SEM) (P-selectin [2]; pre-treatment 100 μg/mL, 37° C. 30 min, HbSS on-transfusion samples, N=8, 32 mm^2 area, 1 dyne/cm^2): 703±161 | Leukocyte adhesion, range (P-selectin [2]; pre-treatment 100 μg/mL, HbSS on-transfusion samples, N=8): 131-1474 | Leukocyte adhesion (adherent leukocytes, mean±SEM) (P-selectin [2]; [7]): 587±168 | Leukocyte adhesion, range (P-selectin [2]; [7]): 81-1403 | Leukocyte adhesion (adherent leukocytes, mean±SEM) (P-selectin [2]; pre-treatment 1 mg/mL, non-transfusion individuals (on-hydroxyurea or supportive care), N=8): 179±79 | Leukocyte adhesion, range (P-selectin [2]; pre-treatment 1 mg/mL, non-transfusion individuals, N=8): 39-691 | Annual rate of VOC (P-selectin [3]): reduced the annual rate of VOC | Effect of post-treatment on adherent leukocytes (P-selectin [4]; post-treatment 10 μg/mL after leukocytes adhered): detachment of rolling leukocytes whereas firmly attached cells remained adherent | Leukocyte adhesion after introducing drug, range (P-selectin [4]; post-treatment 10 μg/mL, N=6): 58-2388 | Leukocyte adhesion after introducing drug into the microchannels (mean±SEM) (P-selectin [4]; post-treatment 10 μg/mL, N=6 (4 on-transfusion)): 719±354
